Values quoted from earlier work in article PMC4963854, “Mapping Protein–Protein Interactions of the Resistance-Related Bacterial Zeta Toxin–Epsilon Antitoxin Complex (ε2ζ2) with High Affinity Peptide Ligands Using Fluorescence Polarization” (Toxins, 2016).

Target: Zeta toxin (Streptococcus pyogenes) (UniProt Q54944)
Sequence (Q54944 2-287): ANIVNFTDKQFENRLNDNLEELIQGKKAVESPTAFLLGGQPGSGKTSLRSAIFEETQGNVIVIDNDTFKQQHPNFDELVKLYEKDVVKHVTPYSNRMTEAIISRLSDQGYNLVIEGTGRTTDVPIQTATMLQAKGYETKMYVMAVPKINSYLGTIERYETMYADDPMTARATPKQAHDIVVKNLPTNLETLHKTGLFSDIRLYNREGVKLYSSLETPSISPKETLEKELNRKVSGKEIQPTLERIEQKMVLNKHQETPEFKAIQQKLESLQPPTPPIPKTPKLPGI

Chain of Epsilon antitoxin (Q57231 2-90): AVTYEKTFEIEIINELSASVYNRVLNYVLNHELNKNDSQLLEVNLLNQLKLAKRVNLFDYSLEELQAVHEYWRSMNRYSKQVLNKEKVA

For Epsilon antitoxin (from UniProt Q57231), the Kd is listed as 1000 nM.
